Data from FireProtDB (doi:10.1021/bi034486i).
Several values for one entry are separate records, joined by “and”; a condition that tells them apart may be missing. Identical values can stand only once.

Conditions: Homo sapiens; pH 7.82; 20 °C; GdnHCl; CD; sodium phosphate 50 mM; whole UniProt chain shown

B1: Thioredoxin-like protein 4A wild type, P83876 (protein)
chain: MSYMLPHLHNGWQVDQAILSEEDRVVVIRFGHDWDPTCMKMDEVLYSIAEKVKNFAVIYLVDITEVPDFNKMYELYDPCTVMFFFRNKHIMIDLGTGNNNKINWAMEDKQEMVDIIETVYRGARKGRGLVVSPKDYSTKYRY
For B1, the denaturant m value was 2.16 kcal/mol/M and 3.24 kcal/mol/M, the “denaturant midpoint (higher = more stable)” value was 3.39 M and 3.41 M and the unfolding free energy was 7.32 kcal/mol and 11.1 kcal/mol.
